Binding result and Kd data for three molecules are collected here from PMC9035363 (Cell Reports, 2022).

What all share (assay): SPR
Test [1] concerns the target T1, SARS-CoV-2 S protein, soluble trimer (SARS-CoV-2, Wuhan reference …, UniProt P0DTC2, stabilised).
Test [2] deals with T1, SARS-CoV-2 S protein, soluble trimer. This is another data set of the same source.
The target in test [3] is T2, SARS-CoV-2 D614G S protein, soluble trimer (SARS-CoV-2, Wuhan sequence with D614G, UniProt A0A6H1PJZ3, D614G).
The target of test [4] is T2, SARS-CoV-2 D614G S protein, soluble …. This is another data set of the same source.

Where two headings read alike, the source gives them in different places.

B1: REGN10987 (imdevimab) (antibody, V domains shown)
VH: QVQLVESGGGVVQPGRSLRLSCAASGFTFSNYAMYWVRQAPGKGLEWVAVISYDGSNKYYADSVKGRFTISRDNSKNTLYLQMNSLRTEDTAVYYCASGSDYGDYLLVYWGQGTLVTVSS
VL: QSALTQPASVSGSPGQSITISCTGTSSDVGGYNYVSWYQQHPGKAPKLMIYDVSKRPSGVSNRFSGSKSGNTASLTISGLQSEDEADYYCNSLTSISTWVFGGGTKLTVL
For the molecule B1, in test [1], the binding result is “binds”.

B2: LY-CoV1404 (bebtelovimab), full-length human IgG1 mAb (antibody, V domains shown)
VH: QITLKESGPTLVKPTQTLTLTCTFSGFSLSISGVGVGWLRQPPGKALEWLALIYWDDDKRYSPSLKSRLTISKDTSKNQVVLKMTNIDPVDTATYYCAHHSISTIFDHWGQGTLVTVSS
VL: QSALTQPASVSGSPGQSITISCTATSSDVGDYNYVSWYQQHPGKAPKLMIFEVSDRPSGISNRFSGSKSGNTASLTISGLQAEDEADYYCSSYTTSSAVFGGGTKLTVL
As to B2, the Kd turned out to be 0.22 nM in test [1], 0.0745 nM in test [2] and 0.0461 nM in test [3].

B3: LY-CoV1404 Fab (papain digestion) (Fab, V domains shown)
VH: B2 VH
VL: B2 VL
As for B3, the Kd in test [4] worked out at 0.79 nM.
